18 variants from the supplement of paper PMC7125110 can be followed below.

The term kcat denotes the number of substrate molecules converted per active site and unit of time at saturation. In general, KM refers to the substrate concentration at which the rate is half of its maximum.

B1: glmS ribozyme (parent)
chain: AUAAAAGCGCCAGAACUACAGAAAUGUAGUUGACGAGGAGGAGGUUUAUCGAAUUUUCGGCGGAUGCCUCCAAA

± gives the standard error. For some of these results: Fewer inactive variants are shown than the library holds.

Common to all, as to conditions: with glucosamine-6-phosphate
Variants of B1 are the subject of data set [1]. In words: kcat; higher = faster cleavage; RNA array. The method, boiled down: (§1)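 Barcoded ribozyme variants on sequenced MiSeq chips were transcribed in situ by E. coli RNA polymerase and followed at 37 °C through a hybridised Cy3 probe. Glucosamine-6-phosphate at 40 μM to 10 mM in HEPES/KCl/Mg(OAc)2 buffer was flowed in, and tiles were imaged over ~14 h. Signals were normalised to baseline and to non-cleaving reference variants, and per-tile medians were fit to one- or two-exponential decays to give kobs. Weighted Michaelis–Menten fits across concentrations gave kcat and KM.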

In data set [2] the parent is B1. In words: self-cleavage kobs at 640 uM GlcN6P; higher = faster cleavage; RNA array. Put shortly:
as §1

Data set [3] covers variants of B1. As to the kind of experiment: self-cleavage kobs at 2500 uM GlcN6P; higher = faster cleavage; RNA array. Put shortly:
as §1

The variants in data set [4] derive from B1. As to the kind of experiment: self-cleavage kobs at 10000 uM GlcN6P; higher = faster cleavage; RNA array. The method, boiled down:
as §1

In data set [5] the parent is B1. In words: KM; higher = weaker cofactor use; RNA array. Put shortly: as §1
Variants of B1 are the subject of data set [6]. In words: self-cleavage kobs at 40 uM GlcN6P; higher = faster cleavage; RNA array. The method, boiled down:
as §1

Variants of B1 are the subject of data set [7]. As to the kind of experiment: self-cleavage kobs at 160 uM GlcN6P; higher = faster cleavage; RNA array. Put shortly: as §1

Consider C67U C68A, for which the kcat in data set [1] was determined as 4.58e-05 ± 9.2e-06 s⁻¹. Further, the “self-cleavage kobs at 640 uM GlcN6P” value in data set [2] was determined as 4.09e-05 ± 9.8e-06 s⁻¹. For the same variant, in data set [3], the “self-cleavage kobs at 2500 uM GlcN6P” value worked out at 5.66e-05 ± 7.5e-06 s⁻¹. Also, the “self-cleavage kobs at 10000 uM GlcN6P” value in data set [4] is 2.96e-05 ± 8.7e-06 s⁻¹.
On to A14U C58G, for which the kcat in data set [1] was 0.000104 ± 9.8e-06 s⁻¹. Further, the KM in data set [5] came to 1960 ± 710 µM. The “self-cleavage kobs at 640 uM GlcN6P” value in data set [2] was 3.48e-05 ± 1.2e-05 s⁻¹. Besides, in data set [3], the “self-cleavage kobs at 2500 uM GlcN6P” value is 4.98e-05 ± 1.1e-05 s⁻¹. Also, the “self-cleavage kobs at 10000 uM GlcN6P” value in data set [4] came out at 8.81e-05 ± 7.2e-06 s⁻¹.
In the case of C16G C58A, the kcat in data set [1] worked out at 0.000242 ± 1.6e-05 s⁻¹. Besides, the KM in data set [5] was 3440 ± 410 µM. The “self-cleavage kobs at 640 uM GlcN6P” value in data set [2] stood at 3.73e-05 ± 9.2e-06 s⁻¹. Further, the “self-cleavage kobs at 2500 uM GlcN6P” value in data set [3] turned out to be 0.000104 ± 1.8e-05 s⁻¹. Besides, the “self-cleavage kobs at 10000 uM GlcN6P” value in data set [4] worked out at 0.000178 ± 3.1e-05 s⁻¹.
In the case of A15C A53U, the kcat in data set [1] amounted to 0.00401 ± 0.00066 s⁻¹. For the same variant, in data set [5], the KM is 1690 ± 400 µM. For the same variant, the “self-cleavage kobs at 40 uM GlcN6P” value in data set [6] stood at 9.37e-05 ± 1.2e-05 s⁻¹. The “self-cleavage kobs at 160 uM GlcN6P” value in data set [7] is 0.000395 ± 9e-05 s⁻¹. In addition, in data set [2], the “self-cleavage kobs at 640 uM GlcN6P” value worked out at 0.00119 ± 0.00025 s⁻¹. Moreover, in data set [3], the “self-cleavage kobs at 2500 uM GlcN6P” value came to 0.00184 ± 0.00036 s⁻¹. Further, the “self-cleavage kobs at 10000 uM GlcN6P” value in data set [4] worked out at 0.00391 ± 0.00049 s⁻¹.
G32U C70U: the kcat in data set [1] amounted to 0.00165 ± 0.00025 s⁻¹. The KM in data set [5] came to 5270 ± 1300 µM. Further, the “self-cleavage kobs at 160 uM GlcN6P” value in data set [7] worked out at 7.01e-05 ± 1.6e-05 s⁻¹. Besides, in data set [2], the “self-cleavage kobs at 640 uM GlcN6P” value was found to be 0.000182 ± 2.4e-05 s⁻¹. In data set [3], the “self-cleavage kobs at 2500 uM GlcN6P” value was determined as 0.000464 ± 6.3e-05 s⁻¹. Further, in data set [4], the “self-cleavage kobs at 10000 uM GlcN6P” value came out at 0.00111 ± 8.8e-05 s⁻¹.
For the variant C16U A48C, the kcat in data set [1] stood at 0.000297 ± 6.4e-05 s⁻¹. For the same variant, in data set [5], the KM was 3910 ± 1700 µM. Further, in data set [2], the “self-cleavage kobs at 640 uM GlcN6P” value came out at 3.07e-05 ± 1.2e-05 s⁻¹. Moreover, the “self-cleavage kobs at 2500 uM GlcN6P” value in data set [3] came to 0.000142 ± 2.4e-05 s⁻¹. In addition, the “self-cleavage kobs at 10000 uM GlcN6P” value in data set [4] came out at 0.000203 ± 3.1e-05 s⁻¹.
Consider G29A C71A, for which the kcat in data set [1] was 0.000446 ± 4.4e-05 s⁻¹. Also, in data set [5], the KM worked out at 592 ± 140 µM. Besides, the “self-cleavage kobs at 640 uM GlcN6P” value in data set [2] was found to be 0.000233 ± 4e-05 s⁻¹. For the same variant, the “self-cleavage kobs at 2500 uM GlcN6P” value in data set [3] worked out at 0.000344 ± 0.0001 s⁻¹. Further, the “self-cleavage kobs at 10000 uM GlcN6P” value in data set [4] amounted to 0.000437 ± 0.00014 s⁻¹.
Consider G29A U31C, for which the kcat in data set [1] amounted to 0.000716 ± 0.00016 s⁻¹. The KM in data set [5] stood at 2070 ± 780 µM. In addition, the “self-cleavage kobs at 160 uM GlcN6P” value in data set [7] is 7.58e-05 ± 2e-05 s⁻¹. Also, the “self-cleavage kobs at 640 uM GlcN6P” value in data set [2] turned out to be 0.000161 ± 3e-05 s⁻¹. In data set [3], the “self-cleavage kobs at 2500 uM GlcN6P” value was 0.000333 ± 7.1e-05 s⁻¹. Also, the “self-cleavage kobs at 10000 uM GlcN6P” value in data set [4] is 0.000668 ± 0.00012 s⁻¹.
In the case of U30A C71U, the kcat in data set [1] is 0.0039 ± 0.00081 s⁻¹. Also, the KM in data set [5] turned out to be 1470 ± 450 µM. Moreover, the “self-cleavage kobs at 40 uM GlcN6P” value in data set [6] came to 0.000127 ± 2.5e-05 s⁻¹. Moreover, in data set [7], the “self-cleavage kobs at 160 uM GlcN6P” value was 0.000337 ± 8e-05 s⁻¹. Besides, the “self-cleavage kobs at 640 uM GlcN6P” value in data set [2] was 0.00116 ± 0.00024 s⁻¹. In addition, in data set [3], the “self-cleavage kobs at 2500 uM GlcN6P” value worked out at 0.0021 ± 0.00045 s⁻¹. Besides, the “self-cleavage kobs at 10000 uM GlcN6P” value in data set [4] was determined as 0.00416 ± 0.00086 s⁻¹.
For the variant U49G C70G, the kcat in data set [1] worked out at 4.12e-05 ± 2.8e-06 s⁻¹. For the same variant, in data set [7], the “self-cleavage kobs at 160 uM GlcN6P” value amounted to 3.09e-05 ± 1.3e-05 s⁻¹. Also, the “self-cleavage kobs at 640 uM GlcN6P” value in data set [2] came out at 4.22e-05 ± 9e-06 s⁻¹. In addition, the “self-cleavage kobs at 2500 uM GlcN6P” value in data set [3] stood at 3.6e-05 ± 8e-06 s⁻¹. For the same variant, the “self-cleavage kobs at 10000 uM GlcN6P” value in data set [4] is 4.11e-05 ± 6e-06 s⁻¹.
Take A14U C50A: in data set [1], the kcat was 1.95e-05 ± 4.6e-06 s⁻¹.
Same read-out and setting: as for G13C G41U, the figure is 3.06e-05 ± 9.2e-06 s⁻¹.
Still for that read-out and setting: as for G9C G38C C67A U69C, the figure is less than 1e-05 s⁻¹.
For the variant A33U G38C, the kcat in data set [1] is less than 1e-05 s⁻¹. Also, in data set [4], the “self-cleavage kobs at 10000 uM GlcN6P” value was less than 1e-05 s⁻¹.
As for G37A G44U, the kcat in data set [1] was found to be 8.09e-05 ± 2.1e-05 s⁻¹. Moreover, the “self-cleavage kobs at 160 uM GlcN6P” value in data set [7] is less than 1e-05 s⁻¹. Moreover, the “self-cleavage kobs at 2500 uM GlcN6P” value in data set [3] is 4.71e-05 ± 9.1e-06 s⁻¹. In addition, in data set [4], the “self-cleavage kobs at 10000 uM GlcN6P” value was determined as 5.95e-05 ± 2.3e-05 s⁻¹.
As for A6U U47G, the kcat in data set [1] is 5.58e-05 ± 2.6e-06 s⁻¹. Moreover, the KM in data set [5] stood at 564 ± 180 µM. The “self-cleavage kobs at 2500 uM GlcN6P” value in data set [3] stood at 4.79e-05 ± 7.2e-06 s⁻¹. For the same variant, the “self-cleavage kobs at 10000 uM GlcN6P” value in data set [4] turned out to be 5.16e-05 ± 6.8e-06 s⁻¹.
With U57G C68A C70U, the kcat in data set [1] came to 3.59e-05 ± 1.7e-05 s⁻¹. Also, the “self-cleavage kobs at 640 uM GlcN6P” value in data set [2] was found to be 5.38e-05 ± 1.8e-05 s⁻¹.
As for A33U U47C, the kcat in data set [1] was determined as 3.28e-05 ± 1.2e-05 s⁻¹. Also, the “self-cleavage kobs at 40 uM GlcN6P” value in data set [6] is less than 1e-05 s⁻¹. The “self-cleavage kobs at 10000 uM GlcN6P” value in data set [4] is 3.01e-05 ± 1.1e-05 s⁻¹.
